In patent US20260109758A1 (BIOSION, published 2026):
Read-outs that look alike come from different tables or passages of the source. Blank lines part the entries; values can stand above or below the binder they belong to.

How the values were obtained:
[1] = target: T1, biotin-labeled human TSLP-Fc (human, biotin-labeled); experiment: cell-based blocking FACS: antibody pre-mixed with biotin human TSLP-Fc; blocked binding to cell-surface TSLPR/IL7Ra on HEK293T-TSLPR/IL7R/STAT5-Luc 5C5 cells
T1 construct: also called TSLP-Fc protein; TSLP-Fc-biotin
Experimental: (§1) The cells were prepared following the instruction of lipofectamine 3000 transfection reagent (Thermo Fisher), by transfecting HEK293T cells (ATCC® CRL-11268) with pCMV-T-P plasmids inserted with TSLPR coding sequence between EcoRI and Xba1 sites and pCMV3-SP plasmids inserted with IL7Ra coding sequence between HindIII and Xba1 sites as well as pGL4.52 [luc2P/STAT5RE/Hygro](Promega).
(§2) The cells were harvested from cell culture flasks, washed twice and re-suspended in phosphate buffered saline (PBS) containing 2% v/v Fetal Bovine Serum (FACS buffer). […] Cells were washed twice with FACS buffer, and then added and incubated with 100 μL/well R-Phycoerythrin Streptavidin (1:500 dilution in FACS buffer, Jackson Immunoresearch, Cat #016-110-084) for 40 minutes at 4° C. in dark. Cells were washed twice and re-suspended in FACS buffer. Fluorescence was measured using a Becton Dickinson FACS Canto II-HTS equipment. Data was analyzed using Graphpad Prism and IC₅₀ values were reported.

[2] = target: T2, recombinant human IL4Rα-his (human, UniProt P24394 26-231, limits assumed, biotin-labeled in the capture ELISA); experiment: dual-binding ELISA: coated human IL4Rα-his, antibody titrated, detection with biotin human TSLP-his and SA-HRP; signal needs both antigens bound
T2 construct: In-house made; not shown: His tag at the C-terminus
Experimental: For the dual-binding ELISA, 96-well ELISA plates were firstly coated with 100 μL 1 μg/mL human IL4Rα-his protein (IL4Rα of SEQ ID NO: 33 with His tag at C terminus, prepared in-house) in PBS overnight at 4° C. ELISA plates were washed 4 times with wash buffer (PBS+0.05% Tween-20, PBST) and then blocked with 200 μL/well blocking buffer (5% w/v non-fatty milk in PBST) for 2 hours at 37° C. […] ELISA plates were washed again and incubated with SA-HRP (100 μl/well) for 40 minutes at 37° C. After the final wash, 100 μL/well TMB (Innoreagents) was added. The reaction was stopped 15 minutes later at room temperature with 50 μL/well 1M H₂SO₄, and the absorbance was read on a microplate reader using dual wavelength mode with 450 nm for TMB and 630 nm as the reference wavelength. The OD (450-630) values were plotted against antibody concentration. Data was analyzed using Graphpad Prism and EC₅₀ values were reported.

[3] = target: T2, recombinant human IL4Rα-his; experiment: capture ELISA: antibody captured on anti-human IgG Fc F(ab')2, biotin human IL4Rα-his, SA-HRP
Experimental: (§3) Briefly, 96-well plates were coated with 2 μg/mL AffiniPure F(ab′)₂ Fragment Goat Anti-Human IgG, Fey fragment specific (Jackson Immuno Research, Cat #109-006-008) in PBS, 100 μL/well, overnight at 4° C. Plates were washed once with wash buffer (PBS+0.05% w/v Tween-20, PBST) and then blocked with 200 μL/well blocking buffer (5% w/v non-fatty milk in PBST) for 2 hours at 37° C. […] After a final wash, plates were incubated with 100 μL/well ELISA substrate TMB (Innoreagents, Cat #TMB-S-002). The reaction was stopped in 10 minutes at 25° C. with 50 μL/well 1M H₂SO₄, and the absorbance was read on a microplate reader using dual wavelength mode with 450 nm for TMB and 630 nm as the reference wavelength. Data was analyzed using Graphpad Prism and EC₅₀ values were reported.

[4] = target: T3, recombinant human TSLP-his (human, UniProt Q969D9 29-159, biotin-labeled in the ELISAs); experiment: SPR Biacore; TSLP-his amine-coupled to CM5 chip, antibody as analyte; 1:1 Langmuir fit
T3 construct: In-house made; not shown: His tag at the C-terminus
Experimental: Un-reacted moieties on the biosensor surface were blocked with ethanolamine. Then, serially diluted purified bispecific antibodies and the controls (2-fold serial dilution in HBS-EP⁺ buffer starting at 100 nM) were respectively flowed onto the chip at a flow rate of 30 μL/min. The antigen-antibody association kinetics was followed for 4 minutes and the dissociation kinetics was followed for 13 minutes.

[5] = target: T2, recombinant human IL4Rα-his; experiment: competitive ELISA: coated human IL4Rα-his, antibody titrated; blocked ligand biotin human IL4
Experimental: Briefly, 100 μL human IL4Rα-his proteins (prepared in-house, IL4Rα of SEQ ID NO: 33 with C-terminal His tag) were coated on 96-well micro plates at 2 μg/mL in PBS overnight at 4° C. The next day, plates were washed with wash buffer (PBS+0.05% w/v Tween-20, PBST), and blocked with 5% w/v non-fatty milk in PBST for 2 hours at 37° C. Plates were then washed again using wash buffer. Serially diluted bispecific antibodies or the controls (starting at 100 nM with a 5-fold serial dilution) in 2.5% w/v non-fatty milk in PBST, 100 μL per well, were added to the IL4Rα bound plates, and incubated at 37° C. for 40 minutes. […] Plates were washed again using wash buffer. Thereafter, the plates were added with 100 μL/well of streptavidin conjugated HRP (1:10000 dilution in PBST buffer, Jackson Immunoresearch, Cat #016-030-084) and incubated for 40 minutes at 37° C. Plates were washed again using wash buffer. Finally, TMB was added and the reaction was stopped using 1M H₂SO₄, and the absorbance was read at 450 nm. Data was analyzed using Graphpad Prism and IC₅₀ values were reported.

[6] = target: T4, human IL4Rα expressed on 293F-IL4Rα cell surface (human, UniProt P24394 26-825); experiment: cell-based blocking FACS on 293F-IL4Rα cells; blocked ligand biotin human IL4
T4 construct: whole, on cells; also called human IL4Rα-expressing cells; cell surface IL4R
Experimental: (§4) Then, 1×10⁵ cells per well were incubated in 96 well-plates in 100 μL of serially diluted bispecific antibodies, the positive controls or negative control (starting at 100 nM with a 5-fold serial dilution) in FACS buffer for 40 minutes on ice. […] The plates were washed twice with FACS buffer, and then added and incubated for 40 minutes at 4° C. in dark with 100 μL/well R-Phycoerythrin Streptavidin (1:500 dilution in FACS buffer, Jackson Immunoresearch, Cat #016-110-084). Cells were washed twice and resuspended in FACS buffer. Fluorescence was measured using a Becton Dickinson FACS Canto II-HTS equipment. Data was analyzed using Graphpad Prism and IC₅₀ values were reported.

[7] = target: T1, biotin-labeled human TSLP-Fc; experiment: cell-based blocking FACS: antibody pre-mixed with biotin human TSLP-Fc; blocked binding to cell-surface TSLPR/IL7Ra on HEK293T-TSLPR/IL7R/STAT5-Luc 5C5 cells; remark: listed apart in the source
Experimental: as §1, §2

[8] = target: T4, human IL4Rα expressed on 293F-IL4Rα …; experiment: flow cytometry on 293F-IL4Rα cells, PE anti-human IgG Fc
Experimental: (§5) Cells were washed twice with FACS buffer, and added with 100 μL/well R-Phycoerythrin AffiniPure Goat Anti-Human IgG, Fey fragment specific (1:1000 dilution in FACS buffer, Jackson Immunoresearch, Cat #109-115-098). Following an incubation of 40 minutes at 4° C. in dark, cells were washed three times and resuspended in FACS buffer. Fluorescence was measured using a Becton Dickinson FACS Canto II-HTS equipment. Data was analyzed using Graphpad Prism and EC₅₀ values were reported.

[9] = target: T2, recombinant human IL4Rα-his; experiment: SPR Biacore T200; antibody captured on anti-human IgG CM5 chip, IL4Rα-his as analyte; 1:1 Langmuir fit
Experimental: The goat anti-human IgG (GE healthcare, Cat #BR100839, Human Antibody Capture Kit) was covalently linked to a CM5 chip (carboxy methyl dextran coated chip) via primary amines, using a standard amine coupling kit provided by Biacore (GE healthcare, Pittsburgh, PA, USA). Un-reacted moieties on the biosensor surface were blocked with ethanolamine. Then, purified bispecific antibodies of the disclosure at the concentration of 66.67 nM and the controls at 10 μg/mL, were flowed onto the chip at a flow rate of 10 μL/min. Then, serially diluted recombinant human IL4Rα-his (in house made, IL4Rα of SEQ ID NO: 33 with His tag at C-terminus) in HBS EP buffer (provided by Biacore) was flowed onto the chip at a flow rate of 30 μL/min. The association and dissociation curves were fit to a 1:1 Langmuir binding model using BIAcore evaluation software.

[10] = target: T4, human IL4Rα expressed on 293F-IL4Rα …; experiment: flow cytometry on 293F-IL4Rα cells, PE anti-human IgG Fc; remark: listed apart in the source
Experimental: as §5

[11] = target: T2, recombinant human IL4Rα-his; experiment: capture ELISA: antibody captured on anti-human IgG Fc F(ab')2, biotin human IL4Rα-his, SA-HRP; remark: listed apart in the source
Experimental: as §3

[12] = target: T4, human IL4Rα expressed on 293F-IL4Rα …; experiment: cell-based blocking FACS on 293F-IL4Rα cells; blocked ligand biotin human IL4; remark: listed apart in the source
Experimental: as §4

IC50 [1]: 1.23 nM
B1: Tezepelumab (antibody, human IgG2, lambda, V domains shown)
VH: QMQLVESGGGVVQPGRSLRLSCAASGFTFRTYGMHWVRQAPGKGLEWVAVIWYDGSNKHYADSVKGRFTITRDNSKNTLNLQMNSLRAEDTAVYYCARAPQWELVHEAFDIWGQGTMVTVSS
VL: SYVLTQPPSVSVAPGQTARITCGGNNLGSKSVHWYQQKPGQAPVLVVYDDSDRPSWIPERFSGSNSGNTATLTISRGEAGDEADYYCQVWDSSSDHVVFGGGTKLTVLG
notes: Positive control, prepared in-house; also called an anti-TSLP antibody

EC50 [2]: 0.104 nM
EC50 [3]: 0.182 nM
Kd [4]: < 0.0141 nM
koff [4]: < 1e-05 s⁻¹
kon [4]: 710000 M⁻¹ s⁻¹
IC50 [5]: 0.38 nM
IC50 [6]: 0.326 nM
IC50 [7]: 1.13 nM
EC50 [8]: 0.458 nM
Kd [9]: 4.88 nM
koff [9]: 0.000244 s⁻¹
kon [9]: 50000 M⁻¹ s⁻¹
B2: BSI-502-006 (bispecific antibody, human IgG1, kappa)
heavy: QVQLVQSGAEVKKPGASVKVSCKASGYTFTTYWMHWVRQAPGQGLEWMGVIDPSDSDTTYNQKFKGRVTMTRDTSTSTVYMELSSLRSEDTAVYYCTRSLDGYYDYWGQGTLVTVSSASTKGPSVFPLAPSSKSTSGGTAALGCLVKDYFPEPVTVSWNSGALTSGVHTFPAVLQSSGLYSLSSVVTVPSSSLGTQTYICNVNHKPSNTKVDKKVEPKSCDKTHTCPPCPAPEAQGGPSVFLFPPKPKDTLYITREPEVTCVVVDVSHEDPEVKFNWYVDGVEVHNAKTKPREEQYNSTYRVVSVLTVLHQDWLNGKEYKCQVSNKALPAPIEKTISKAKGQPREPQVYTLPPSRDELTKNQVSLTCLVKGFYPSDIAVEWESNGQPENNYKTTPPVLDSDGSFFLYSKLTVDKSRWQQGNVFSCSVMHEALHNHYTQKSLSLSPGKGGGGSGGGGSDIQMTQSPSSLSASVGDRVTITCRTSENIYSYLAWYQQKPGKAPKFLVYNAKTLAEGVPSRFSGSGSGTDFTLTISSLQPEDFATYYCQHYYGPPTWTFGQGTKVEIKGGGGSGGGGSGGGGSGGGGSEVQLVESGGGLVQPGGSLRLSCAASGFTFSTYGMSWVRQAPGKGLVWVATINSNGGSTSYPDSVKGRFTISRDNAKNTLYLQMNSLRAEDTAVYYCARFFRFRNAMDYWGQGTLVTVSS
light: DIQMTQSPSSLSASVGDRVTITCRPTENIYSYLAWYQQKPGKAPKLLIYFARTLAEGVPSRFSGSGSGTDFTLTISSLQPEDFATYYCQHHYGTPWTFGGGTKVEIKRTVAAPSVFIFPPSDEQLKSGTASVVCLLNNFYPREAKVQWKVDNALQSGNSQESVTEQDSKDSTYSLSSTLTLSKADYEKHKVYACEVTHQGLSSPVTKSFNRGEC
notes: hu1C5F12E9-V8 IgG with an anti-IL4R scFv (VL-VH) at the C-terminus of the heavy chain; AQQ and YTE already stand in the entry

EC50 [10]: ~0.165 nM
EC50 [3]: 0.0294 nM
IC50 [6]: 0.159 nM
EC50 [11]: 0.0201 nM
EC50 [8]: ~0.162 nM
Kd [9]: 2.07 nM
koff [9]: 0.000348 s⁻¹
kon [9]: 168000 M⁻¹ s⁻¹
IC50 [12]: 0.172 nM
B3: huC2C1A1A1-V15(IgG1) (antibody)
heavy: EVQLVESGGGLVQPGGSLRLSCAASGFTFSTYGMSWVRQAPGKGLVWVATINSNGGSTSYPDSVKGRFTISRDNAKNTLYLQMNSLRAEDTAVYYCARFFRFRNAMDYWGQGTLVTVSSASTKGPSVFPLAPSSKSTSGGTAALGCLVKDYFPEPVTVSWNSGALTSGVHTFPAVLQSSGLYSLSSVVTVPSSSLGTQTYICNVNHKPSNTKVDKKVEPKSCDKTHTCPPCPAPEAQGGPSVFLFPPKPKDTLYITREPEVTCVVVDVSHEDPEVKFNWYVDGVEVHNAKTKPREEQYNSTYRVVSVLTVLHQDWLNGKEYKCQVSNKALPAPIEKTISKAKGQPREPQVYTLPPSRDELTKNQVSLTCLVKGFYPSDIAVEWESNGQPENNYKTTPPVLDSDGSFFLYSKLTVDKSRWQQGNVFSCSVMHEALHNHYTQKSLSLSPG
light: DIQMTQSPSSLSASVGDRVTITCRTSENIYSYLAWYQQKPGKAPKFLVYNAKTLAEGVPSRFSGSGSGTDFTLTISSLQPEDFATYYCQHYYGPPTWTFGQGTKVEIKRTVAAPSVFIFPPSDEQLKSGTASVVCLLNNFYPREAKVQWKVDNALQSGNSQESVTEQDSKDSTYSLSSTLTLSKADYEKHKVYACEVTHQGLSSPVTKSFNRGEC
notes: Monospecific control, full-length IgG1; also called huC2C1A1A-V15(IgG1); anti-IL4R huC2C1A1A1-V15
